This is an account of results in patent US20240101959A1, “USE OF IL-2R-BETA-GAMMA AGONIST PEPTIDES IN CELL MANUFACTURING” (MEDIKINE, INC., priority 2022, published 2024).

In one experiment the target is T1, IL-2Rβ (Homo sapiens, UniProt P14784).
T1 sequence (P14784 27-551): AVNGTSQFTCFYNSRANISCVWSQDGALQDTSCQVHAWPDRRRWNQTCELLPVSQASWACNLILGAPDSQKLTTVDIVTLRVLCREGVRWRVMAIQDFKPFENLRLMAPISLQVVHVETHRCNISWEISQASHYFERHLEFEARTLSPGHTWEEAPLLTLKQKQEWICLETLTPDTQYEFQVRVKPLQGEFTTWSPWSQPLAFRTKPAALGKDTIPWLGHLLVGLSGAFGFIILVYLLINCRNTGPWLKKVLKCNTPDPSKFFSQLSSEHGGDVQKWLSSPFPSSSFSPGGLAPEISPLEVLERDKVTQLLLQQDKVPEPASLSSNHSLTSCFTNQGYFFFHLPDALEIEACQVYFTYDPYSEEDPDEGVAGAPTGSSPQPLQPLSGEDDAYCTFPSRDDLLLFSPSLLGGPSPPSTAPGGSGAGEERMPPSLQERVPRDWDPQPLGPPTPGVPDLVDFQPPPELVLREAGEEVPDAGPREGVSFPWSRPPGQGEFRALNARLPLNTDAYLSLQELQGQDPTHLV
As to the kind of experiment: competition with IL-2 binding to IL-2Rβ.

Experiment [1] deals with T2, hu-IL-2Rγc subunit (Homo sapiens, UniProt P31785).
T2 sequence (P31785 23-369): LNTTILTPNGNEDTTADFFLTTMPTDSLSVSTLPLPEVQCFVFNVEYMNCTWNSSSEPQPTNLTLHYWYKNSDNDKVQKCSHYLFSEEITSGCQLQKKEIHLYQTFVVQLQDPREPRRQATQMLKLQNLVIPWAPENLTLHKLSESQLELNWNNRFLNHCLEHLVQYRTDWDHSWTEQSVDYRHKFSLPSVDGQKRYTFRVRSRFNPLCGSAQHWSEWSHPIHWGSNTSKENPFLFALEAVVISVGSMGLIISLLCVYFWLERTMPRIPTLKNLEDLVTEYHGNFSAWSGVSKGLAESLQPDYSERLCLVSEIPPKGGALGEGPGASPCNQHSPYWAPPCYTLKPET
Kind of experiment: competitive binding at the specific binding site on the hu-IL-2Rγc subunit.

The target of a further experiment is T3, hu-IL-2Rβ subunit (Homo sapiens, UniProt P14784).
T3 sequence (P14784 27-551): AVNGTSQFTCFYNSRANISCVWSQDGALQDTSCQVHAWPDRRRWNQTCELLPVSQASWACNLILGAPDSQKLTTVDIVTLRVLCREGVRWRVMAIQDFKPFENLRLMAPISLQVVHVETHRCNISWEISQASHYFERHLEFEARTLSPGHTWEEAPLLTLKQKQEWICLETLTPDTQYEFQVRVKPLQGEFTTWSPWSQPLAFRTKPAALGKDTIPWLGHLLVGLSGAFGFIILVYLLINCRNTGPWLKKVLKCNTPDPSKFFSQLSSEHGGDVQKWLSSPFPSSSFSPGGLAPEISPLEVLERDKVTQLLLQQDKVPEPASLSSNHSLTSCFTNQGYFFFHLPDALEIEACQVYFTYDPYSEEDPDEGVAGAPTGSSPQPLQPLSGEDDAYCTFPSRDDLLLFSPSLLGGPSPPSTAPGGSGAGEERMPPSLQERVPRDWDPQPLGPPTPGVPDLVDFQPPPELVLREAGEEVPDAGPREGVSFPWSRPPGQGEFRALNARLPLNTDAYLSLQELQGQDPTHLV
Kind of experiment: competitive binding at the specific binding site on the hu-IL-2Rβ subunit. The source says:
This specific binding site on the hu-IL-2Rβ subunit to which the group of IL-2Rβ ligands bind can be characterized using competitive binding assays as described.

For experiment [2], the target named is T4, hu-IL-2Rγc subunit (human, UniProt P31785 23-262, limits assumed).
T4 sequence (looked up): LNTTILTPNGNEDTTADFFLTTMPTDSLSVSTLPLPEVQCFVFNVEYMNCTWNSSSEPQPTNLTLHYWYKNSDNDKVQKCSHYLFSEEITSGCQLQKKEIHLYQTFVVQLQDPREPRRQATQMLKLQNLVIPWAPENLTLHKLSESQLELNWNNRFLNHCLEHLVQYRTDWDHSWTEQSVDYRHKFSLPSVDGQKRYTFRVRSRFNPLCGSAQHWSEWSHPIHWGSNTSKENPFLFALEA

Experiment [3] has as its target T4, hu-IL-2Rγc subunit. As to the kind of experiment: phage ELISA competition assay. Background: In an ELISA, binding on a coated surface is turned into a signal by an enzyme label.
Experiment [4] addresses T5, hu-IL-2Rγc subunit (human), P31785.
T5 chain: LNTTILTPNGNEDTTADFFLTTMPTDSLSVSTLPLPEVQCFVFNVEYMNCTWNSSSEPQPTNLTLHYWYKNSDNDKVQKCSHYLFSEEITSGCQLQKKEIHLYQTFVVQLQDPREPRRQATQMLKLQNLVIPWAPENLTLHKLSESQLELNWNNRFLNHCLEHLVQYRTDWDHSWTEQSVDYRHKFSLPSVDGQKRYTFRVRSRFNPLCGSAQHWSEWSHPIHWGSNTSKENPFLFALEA

Experiment [5] shares this target.

Like-named read-outs stand apart in the source and are kept apart here. Some results are limits rather than exact numbers.

In the case of “Y D C R I A Q V G E L C D L (YDCRIAQVGELCDL) [SEQ ID NO: 932]”, in the experiment with IL-2Rβ, the “competition with IL-2 binding to IL-2Rβ” value is listed as “do not bind competitively”. Further, the “competition with the group of IL-2Rγc ligands (SEQ ID NO: 935-940) for the specific binding site on the hu-IL-2Rγc subunit” value with hu-IL-2Rγc subunit [1] was “does not compete”.

Turning to “R W G D V G D L L M P L (RWGDVGDLLMPL) [SEQ ID NO: 934]”, in the experiment with IL-2Rβ, the “competition with IL-2 binding to IL-2Rβ” value is reported as “do not bind competitively”.

In the case of “R S C Y Y K R P R L W C S E (RSCYYKRPRLWCSE) [SEQ ID NO: 931]”, the “competition with the group of IL-2Rβ ligands for the specific binding site on the IL-2Rβ subunit” value with hu-IL-2Rβ subunit was “does not compete”.

Consider “S L L K C Y N A S T C A S V F (SLLKCYNASTCASVF) [SEQ ID NO: 723]”, for which the “competition with the group of IL-2Rγc ligands (SEQ ID NO: 935-940) for the specific binding site on the hu-IL-2Rγc subunit” value with hu-IL-2Rγc subunit [1] is recorded as “do not compete”.

“D C S M W E G V E L C W (DCSMWEGVELCW) [SEQ ID NO: 935]”: the “competition with the group of IL-2Rβ ligands for the specific binding site on the IL-2Rβ subunit” value with hu-IL-2Rβ subunit is given as “does not compete”. In addition, in the experiment with IL-2Rβ, the “competition with IL-2 binding to IL-2Rβ” value is given as “do not bind competitively”.

On to “N M C L V G D Y W P S C Q I (NMCLVGDYWPSCQI) [SEQ ID NO: 933]”, for which the “competition with IL-2 binding to IL-2Rβ” value in the experiment with IL-2Rβ is “do not bind competitively”.

B1: SEQ ID NO 698 (peptide)
peptide: VTCQEYEGVELCWTVGCAYS
As to B1, the half-inhibitory concentration (IC50) (commonly the point on the concentration scale where inhibition reaches its midpoint) is less than 100 µM with hu-IL-2Rγc subunit [2] and less than 10 µM in the experiment with hu-IL-2Rγc subunit [3].

B2: SEQ ID NO 715 (peptide)
peptide: VGIECEEWAGVELCWL
On to B2, for which the half-maximal inhibitory concentration (IC50) is less than 100 µM in the experiment with hu-IL-2Rγc subunit [2] and less than 10 µM with hu-IL-2Rγc subunit [3].

B3: SEQ ID NO 689 (peptide)
peptide: KTTVACQDWGGVELCWVERV
For B3, the half-inhibitory concentration (IC50) with hu-IL-2Rγc subunit [2] was less than 100 µM; with hu-IL-2Rγc subunit [3], less than 10 µM.

B4: SEQ ID NO 936 (peptide)
peptide: KVCEMWGGVLLCWN
modifications: not checked
Take B4: the IC50 in experiment [4] is less than 10 µM; in experiment [5], less than 100 µM.

B5: SEQ ID NO 714 (peptide)
peptide: ILCEEWQGVELCWLEGGGS
As to B5, the concentration for half-maximal inhibition (IC50) is less than 100 µM with hu-IL-2Rγc subunit [2] and less than 10 µM with hu-IL-2Rγc subunit [3].

B6: SEQ ID NO 693 (peptide)
peptide: VVCEVFQGVELCWCENEEFT
Take B6: the concentration for half-maximal inhibition (IC50) with hu-IL-2Rγc subunit [2] was less than 100 µM; with hu-IL-2Rγc subunit [3] it was less than 10 µM.

B7: SEQ ID NO 711 (peptide)
peptide: RTGVECQDWHGVELCWPVWE
Turning to B7, the IC50 was less than 100 µM with hu-IL-2Rγc subunit [2] and less than 10 µM with hu-IL-2Rγc subunit [3].

B8: SEQ ID NO 692 (peptide)
peptide: KPVVVCEEWQGVELCWLEIQ
Turning to B8, the values for the IC50 in the experiment with hu-IL-2Rγc subunit [2] and with hu-IL-2Rγc subunit [3] were less than 100 µM and less than 10 µM, respectively.

B9: SEQ ID NO 708 (peptide)
peptide: KKIVVCQDWGGVELCWTEDD
B9: the IC50 with hu-IL-2Rγc subunit [2] was less than 100 µM; in the experiment with hu-IL-2Rγc subunit [3], less than 10 µM.

B10: SEQ ID NO 712 (peptide)
peptide: GYGVVCEDFRGVELCWLERK
For the molecule B10, the IC50 in the experiment with hu-IL-2Rγc subunit [2] was less than 100 µM; in the experiment with hu-IL-2Rγc subunit [3], less than 10 µM.

B11: SEQ ID NO 686 (peptide)
peptide: VVCQEWEGVELCWVEPPLLP
For B11, the IC50 in the experiment with hu-IL-2Rγc subunit [2] was less than 100 µM; in the experiment with hu-IL-2Rγc subunit [3] it was less than 10 µM.
